The values below come from the RNAGym collection of RNA variant scans (doi:10.7554/elife.90254).

B1: LINE1-full (parent)
chain: UACGUAGGUGGUUUUCCCCUGAUAGUGCUAAGGGGGCCUGGAAGUUUGGACUGGGCAGAGCUCAACACAGCGUGGCAAAGUGGCUGUGGCUAGACUGCCUCUCUGGAUUCCUCGUCACUCAGCAGGGCAUCUCUGAGAGAAAUGCC

Variants of B1 are the subject of this data set. In words: self-cleavage, relative activity (ratio to wild type); higher = more cleavage; in vitro, sequencing; the parent is a self-cleaving ribozyme.
Consider U85G A94G, for which the self-cleavage came to 0.36.

For U85C G144U, the self-cleavage was 0.19.

Consider U87C, for which the self-cleavage was determined as 0.22.

As for U87A, the self-cleavage came out at 0.08.

Turning to G86A U102C, the self-cleavage came out at 0.18.

In the case of U85A A142G, the self-cleavage is 0.08.

G86A G127C: the self-cleavage amounted to 0.09.

Regarding U85A A141U, the self-cleavage came to 0.07.

Regarding U85A A141G, the self-cleavage was found to be 0.07.

As to U87A A124U, the self-cleavage was determined as 0.08.

For the variant G86A A94G, the self-cleavage turned out to be 0.06.

In the case of U87C A142G, the self-cleavage was found to be 0.25.

With U87C G139A, the self-cleavage was 0.14.

On to U85A G126U, for which the self-cleavage stood at 0.07.

Consider U87C C90U, for which the self-cleavage is 0.07.

U87A C110A: the self-cleavage turned out to be 0.06.

Consider U85G A138U, for which the self-cleavage is 0.

For U87A C113A, the self-cleavage amounted to 0.06.

Take U85A A136G: the self-cleavage stood at 0.11.

Consider U87C G122U, for which the self-cleavage amounted to 0.3.

With U85C U104A, the self-cleavage came to 0.08.

Consider U85C U104C, for which the self-cleavage came out at 0.18.

With U85C C99A, the self-cleavage was found to be 0.16.

Consider U87A U134A, for which the self-cleavage came to 0.13.

For the variant G86A U109G, the self-cleavage was 0.07.

Consider U85C A140U, for which the self-cleavage was 0.16.

For G86A, the self-cleavage was determined as 0.08.

As for G86C, the self-cleavage was 0.06.

In the case of G86U, the self-cleavage is 0.1.

U85A U104A: the self-cleavage came out at 0.03.

U85A U104C: the self-cleavage was 0.13.

In the case of U85A U104G, the self-cleavage is 0.02.

Regarding G86U U100C, the self-cleavage was 0.16.

In the case of U87C C103A, the self-cleavage came to 0.1.

U85A C128G: the self-cleavage was 0.06.

Turning to U85A C101U, the self-cleavage turned out to be 0.06.

U85C A117C: the self-cleavage was 0.25.

Regarding U85A G114A, the self-cleavage worked out at 0.08.

With U85C A138G, the self-cleavage worked out at 0.17.

Turning to U85C A138U, the self-cleavage came to 0.13.

On to U85C C95U, for which the self-cleavage amounted to 0.06.

For the variant U87C C120A, the self-cleavage is 0.18.

Consider U85C U91C, for which the self-cleavage worked out at 0.06.

As for G86A U134C, the self-cleavage was found to be 0.08.

For U87C A136G, the self-cleavage was 0.24.

Consider U87C A136C, for which the self-cleavage came out at 0.16.

For the variant U87C G144A, the self-cleavage was found to be 0.24.

Take U87A U112C: the self-cleavage is 0.07.

In the case of U85C, the self-cleavage was 0.18.

Turning to U85G, the self-cleavage came out at 0.13.

Consider U87C G106A, for which the self-cleavage is 0.21.

For U87C G106U, the self-cleavage was found to be 0.26.

With U87C A138G, the self-cleavage was 0.28.

With U85C U108C, the self-cleavage was 0.22.

For the variant U87A A136G, the self-cleavage was determined as 0.08.

With U87A A92G, the self-cleavage was found to be 0.13.

In the case of U85C G93U, the self-cleavage was 0.06.

U85C G89A: the self-cleavage came to 0.03.

In the case of U85C U102C, the self-cleavage came out at 0.12.

For U85A U100A, the self-cleavage is 0.05.

In the case of U87A G88C, the self-cleavage amounted to 0.08.

On to U87C C146A, for which the self-cleavage turned out to be 0.2.

With U85C C146U, the self-cleavage amounted to 0.27.

In the case of U85C C146A, the self-cleavage is 0.48.

On to U85C U143A, for which the self-cleavage was determined as 0.19.

U85C U143C: the self-cleavage amounted to 0.1.

Take G86A U115C: the self-cleavage came to 0.12.

Turning to U85G A140G, the self-cleavage came to 0.19.

As for U85C U132G, the self-cleavage is 0.28.

On to U85C U132C, for which the self-cleavage was 0.24.

In the case of U87A U109A, the self-cleavage is 0.08.

U85C A136G: the self-cleavage was found to be 0.2.

Regarding U85C A136C, the self-cleavage was found to be 0.24.

Turning to U85C A136U, the self-cleavage is 0.24.

Take U85C A142U: the self-cleavage came out at 0.21.

In the case of U85C A142G, the self-cleavage was determined as 0.17.

With U85G U134C, the self-cleavage was 0.16.

As for U87A U100C, the self-cleavage came out at 0.09.

As for U87A C99U, the self-cleavage was 0.12.

U87A U115G: the self-cleavage came to 0.13.

On to G86A U108A, for which the self-cleavage was 0.02.

For the variant U85A C111A, the self-cleavage is 0.06.

Consider U85C G105U, for which the self-cleavage stood at 0.14.

On to U85A C120U, for which the self-cleavage is 0.2.

In the case of U85A C120A, the self-cleavage was found to be 0.07.

As to U85A A129U, the self-cleavage was 0.12.

On to U85A U115A, for which the self-cleavage was found to be 0.09.

Turning to U85A U115C, the self-cleavage stood at 0.13.

U85G U109C: the self-cleavage is 0.

Take U87A A121U: the self-cleavage amounted to 0.09.

For U87A A121G, the self-cleavage is 0.1.

Take U87C G88A: the self-cleavage came out at 0.09.

G86A U87C: the self-cleavage was 0.04.

Turning to U85A U108A, the self-cleavage was found to be 0.17.

Turning to U85A U108G, the self-cleavage is 0.12.

Take U85A U108C: the self-cleavage came to 0.12.

As for U87C C110A, the self-cleavage was 0.06.

As for U87A G97U, the self-cleavage worked out at 0.08.

U85A U132A: the self-cleavage worked out at 0.08.

U87A G127U: the self-cleavage was found to be 0.06.

For the variant U87A G127A, the self-cleavage worked out at 0.04.

As to U85A U96C, the self-cleavage turned out to be 0.09.

Take U85A U96A: the self-cleavage worked out at 0.12.

Regarding U85C U115C, the self-cleavage was 0.21.

U87A G126U: the self-cleavage worked out at 0.08.

As to U85G U143C, the self-cleavage turned out to be 0.13.

In the case of U85C U96A, the self-cleavage worked out at 0.07.

Regarding U85C U96C, the self-cleavage was determined as 0.2.

On to U85A U91C, for which the self-cleavage was 0.04.

With U85A U91A, the self-cleavage is 0.11.

For the variant U87A A140U, the self-cleavage turned out to be 0.11.

On to U85A U134G, for which the self-cleavage worked out at 0.12.

As for U85C G139A, the self-cleavage stood at 0.2.

Take U87C C145A: the self-cleavage came to 0.27.

Consider U85C A92U, for which the self-cleavage was 0.

Consider U87C G137U, for which the self-cleavage stood at 0.27.

As for U87C G137A, the self-cleavage is 0.5.

For the variant U85G C128U, the self-cleavage turned out to be 0.39.

U85C U87C: the self-cleavage came out at 0.04.

Regarding U85C U87A, the self-cleavage is 0.07.

With U85A A138G, the self-cleavage came out at 0.07.

Turning to U85A A138U, the self-cleavage turned out to be 0.06.

For the variant G86A C118U, the self-cleavage is 0.09.

Regarding U87A C131U, the self-cleavage was 0.08.

For U87A A138G, the self-cleavage amounted to 0.07.

For the variant U85C C123G, the self-cleavage was 0.15.

As for G86A A140G, the self-cleavage worked out at 0.03.

As to U87A U91C, the self-cleavage was 0.07.

For U85G U132C, the self-cleavage came out at 0.14.

For U85C U109A, the self-cleavage was determined as 0.12.

For the variant U85C U109C, the self-cleavage is 0.17.

For the variant U87A A129U, the self-cleavage was determined as 0.08.

For the variant G86A A124G, the self-cleavage is 0.02.

Regarding G86A U91C, the self-cleavage is 0.07.

As to U87C A121U, the self-cleavage turned out to be 0.2.

Regarding U87C A129G, the self-cleavage came out at 0.07.

Turning to U87C A129U, the self-cleavage amounted to 0.15.

U87C A141U: the self-cleavage came out at 0.2.

For the variant G86A A141U, the self-cleavage is 0.13.

For U85C G122A, the self-cleavage is 0.14.

U85A G93U: the self-cleavage is 0.08.

U85A G93A: the self-cleavage came to 0.05.

As for U85C C118U, the self-cleavage was 0.1.

Take U87A A117G: the self-cleavage was 0.09.

Take U85A A140U: the self-cleavage turned out to be 0.09.

As to U85A A140G, the self-cleavage came out at 0.08.

As for U87C G97A, the self-cleavage came to 0.12.

U87A U119A: the self-cleavage amounted to 0.08.

As for U87A U119C, the self-cleavage was determined as 0.07.

Consider U87A U96C, for which the self-cleavage was determined as 0.12.

In the case of U87A U96A, the self-cleavage worked out at 0.07.

As for G86A A138G, the self-cleavage came to 0.13.

As for U85A U102C, the self-cleavage is 0.13.

Consider U85C U100C, for which the self-cleavage worked out at 0.28.

Consider U85C U112A, for which the self-cleavage came out at 0.19.

For U85C U112C, the self-cleavage amounted to 0.18.

Take U87C A117C: the self-cleavage was 0.

Take U87C A117G: the self-cleavage amounted to 0.41.

As for U87C A117U, the self-cleavage came to 0.19.

Turning to U87A G114A, the self-cleavage stood at 0.05.

In the case of G86U A129U, the self-cleavage was found to be 0.09.

Regarding U85A U109C, the self-cleavage stood at 0.07.

As for U85A U109A, the self-cleavage is 0.06.

Turning to G86A U119A, the self-cleavage turned out to be 0.16.

As to G86A U112A, the self-cleavage stood at 0.08.

Turning to U87C A94U, the self-cleavage turned out to be 0.05.

In the case of U87C A94G, the self-cleavage worked out at 0.14.
